A word on the Kd: it is a measure of binding affinity in units of concentration. A high value points to a looser complex.

We go through one substance from publication PMC10045213.

For this assay, the target named is p75 NeuroTrophin Receptor (UniProt P08138). Description: SPR; TrkA immobilized at 8860 RU, p75NTR immobilized at 4320 RU; 1.7-15 nM hNGF R100W flowed over; curves blank subtracted. For orientation: In SPR one partner is held on a chip, and binding of the other changes the refractive index at the surface.
Sequence of UniProt P08138 (P08138 29-427): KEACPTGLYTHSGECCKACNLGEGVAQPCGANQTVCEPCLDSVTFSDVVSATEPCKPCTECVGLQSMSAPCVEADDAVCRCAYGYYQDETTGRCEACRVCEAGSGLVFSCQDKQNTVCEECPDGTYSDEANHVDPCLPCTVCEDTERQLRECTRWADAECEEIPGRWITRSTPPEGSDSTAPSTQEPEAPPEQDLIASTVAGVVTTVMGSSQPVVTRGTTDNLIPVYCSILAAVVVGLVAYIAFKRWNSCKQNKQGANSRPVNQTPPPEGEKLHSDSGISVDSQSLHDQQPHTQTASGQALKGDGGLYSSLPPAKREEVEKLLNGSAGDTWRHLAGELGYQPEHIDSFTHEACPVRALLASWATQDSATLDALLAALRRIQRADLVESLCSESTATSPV

“human NGF R100W (from UniProt P01138 122-241) (ligand)”: the Kd came out at 100 nM.
